Experimental data as given in paper PMC4859805, “Molecular mechanism of activation-triggered subunit exchange in Ca^2+/calmodulin-dependent protein kinase II” (eLife, 2016).
Where “and” joins values, the source holds several entries; their conditions need not be identical. Equal entries are not always repeated. Square brackets hold non-standard residues; d marks the D form. Ends that are not written are not given here. pT = C[C@@H](OP(=O)(O)O)[C@H](N)C(=O)O

B1: human CaMKII-α hub domain (domain or fragment, UniProt Q9UQM7 345-475, looked up)
chain: VRKQEIIKVTEQLIEAISNGDFESYTKMCDPGMTAFEPEALGNLVEGLDFHRFYFENLWSRNSKPVHTTILNPHIHLMGDESACIAYIRITQYLDAGGIPRTAQSEETRVWHRRDGKWQIVHFHRSGAPSV
notes: Ca2+/calmodulin-dependent protein kinase II alpha, human, hub domain; residues 345-475 are stated for the crystallization construct; The limits are stated only for the crystallization construct; also called the hub; isolated hub; source: E. coli BL21, purified (Ni-NTA, Q-FF, Superose 6); not shown: His6, N-terminal, cleaved; copies: 12 or 14

Legend:
[1] = biological target: T1, human CaMKII-α hub (Homo sapiens, UniProt Q9UQM7); assay: Fluorescence polarization competition assay with unlabeled peptides; type: binding
T1 construct: human CaMKII-α hub consisted of residues 345–475 (UNIPROT id: Q9UQM7); 6-histidine tag with PreScission protease site (N, cleaved yes); made in house; host or cells: E. coli BL21
T1 sequence (Q9UQM7 345-475): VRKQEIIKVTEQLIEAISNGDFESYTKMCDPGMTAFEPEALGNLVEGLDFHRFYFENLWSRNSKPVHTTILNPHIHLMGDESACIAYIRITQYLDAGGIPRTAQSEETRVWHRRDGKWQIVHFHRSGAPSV
Method: For the competition experiments, 2 nM of various labeled peptides were bound to 30 μM of the hub, resulting in high fluorescence polarization. Upon titration with the corresponding unlabeled versions of the peptides, the labeled peptides were competed off, and the fluorescence polarization decreased to the baseline value (Figure 3C–E). The value of the inhibition constant, IC50, is ~100 μM for the unlabeled peptides, whether phosphorylated or not. […]
(§1) The fluorescence polarization binding experiments were initiated by adding 15 μL of 2 nM BODIPY labeled peptides (buffer: 25 mM Tris at pH 8.0) to 15 μL of different concentrations of the human CaMKII-α hub domain (ranging from 0–1000 μM in 25 mM Tris at pH 8.0, 150 mM KCl, 10% glycerol and 0.02% Tween). […] The fluorescence polarization was read from 20 μL of these reaction mixtures in opaque black 96-well plates using a Synergy H4 hybrid microplate reader with a 485/20 nm excitation filter, and a 528/20 nm emission filter. Error bars are calculated from the standard error of mean between replicates of experiments. […]
where, A is the observed fluorescence polarization (FP) value, Af is the FP value for free labeled ligand, A0 is the FP value in the absence of unlabeled ligand, KD is the dissociation constant, [P]tot is the total protein concentration, and [L]tot is the total concentration of the unlabeled ligand. […]

[2] = biological target: N. vectensis CaMKII-A hub domain (Nematostella vectensis); assay: crystal structure; N. vectensis CaMKII-A hub; 0.2 M potassium thiocyanate, 20% w/v PEG 3350, pH 7.0
[3] = biological target: N. vectensis CaMKII-B hub domain (Nematostella vectensis); assay: crystal structure; N. vectensis CaMKII-B hub; 2.5 M sodium chloride, 0.1 M acetate pH 4.2, 0.25 M lithium sulphate
[4] = biological target: T1, human CaMKII-α hub; assay: Fluorescence polarization, direct titration of hub to BODIPY-labeled peptide; details: 2 nM Bodipy-FL-labeled peptide, hub 0-1000 μM, 25 mM Tris pH 8.0; non-saturable binding at high hub concentrations, value not relied on; read-out: KD derived from direct titration of the hub to the labeled peptide
From the text: To analyze the mechanism of subunit exchange, we focused initially on potential interactions between the CaM-binding element and the hub. We had shown previously that mutation of the CaM-binding element blocks subunit exchange, and that phosphorylation of Thr 305 and Thr 306 in the CaM-binding element potentiates exchange ([Stratton et al., 2014]). We prepared both phosphorylated and unphosphorylated forms of peptides spanning the CaM-binding element of CaMKII-α (see Materials and methods). The peptides were labeled with a fluorophore (Bodipy-FL maleimide) at the C-terminal end, and binding was monitored by changes in fluorescence polarization (Figure 3A). To a fixed volume of labeled peptide (2 nM), increasing concentrations of the hub was added, and the change in fluorescence polarization was monitored (Figure 3B). […]
as §1, with “filter.” for “filter. Error bars are calculated from the standard error of mean between replicates of experiments.”

[5] = biological target: S. rosetta CaMKII holoenzyme, full length, wild type (Salpingoeca rosetta); assay: native MS; full-length S. rosetta CaMKII at 3 μM; 1 M ammonium acetate pH 7.2
[6] = biological target: S. rosetta CaMKII holoenzyme, full length, wild type (Salpingoeca rosetta); assay: native MS; full-length S. rosetta CaMKII at 12 μM; 1 M ammonium acetate pH 7.2
[7] = biological target: S. rosetta CaMKII holoenzyme, full length, wild type (Salpingoeca rosetta); assay: native MS; full-length S. rosetta CaMKII at 48 μM; 1 M ammonium acetate pH 7.2
[8] = biological target: S. rosetta CaMKII holoenzyme, full length, wild type (Salpingoeca rosetta); assay: SEC; analytical gel filtration, Superose 6 10/300, 25 mM Tris pH 8.0, 150 mM KCl, 10% glycerol, 1 mM TCEP or 2 mM DTT; injection at 700 nM subunits; tryptophan fluorescence
[9] = biological target: S. rosetta CaMKII hub domain (Salpingoeca rosetta); assay: SEC-MALS; S. rosetta hub at ∼3.2 mg/ml (~200 μM) on Superdex 200 10/300; 25 mM Tris pH 8.0, 150 mM KCl, 1 mM TCEP, 10% glycerol; 25°C
[10] = biological target: hub-△kinase (hub, linker and autoinhibitory segment of human CaMKII-α, without the kinase domain) (human); assay: SEC; analytical gel filtration, Superose 6 10/300, 25 mM Tris pH 8.0, 150 mM KCl, 10% glycerol, 1 mM TCEP or 2 mM DTT; injection at 700 nM subunits; tryptophan fluorescence
[11] = biological target: the molecule itself; assay: native MS; human hub; nanoelectrospray Q-TOF, 1 M ammonium acetate pH 7.2; CID MS/MS at 30 V collision energy
[12] = biological target: the molecule itself; assay: native MS; F397A hub: 200 μM in 1 M ammonium acetate; 2 μM in 25 mM Tris, 1 mM TCEP, pH 8; 250 mM ammonium acetate, 25 mM Tris, 1 mM TCEP, pH 8; oligomer identity confirmed by CID
[13] = biological target: the molecule itself; assay: SEC; analytical gel filtration, Superose 6 10/300; elevated injection concentration of 3–5 μM; reinjection of the dodecamer/tetradecamer peak of the holoenzyme; pre-incubation with Mg2+-ATP for the holoenzyme
[14] = biological target: B1; assay: fluorescence polarisation; competition: 2 nM BODIPY labelled peptide bound to 30 μM hub, unlabeled peptide 0-500 μM added; KD from a non-linear fit assuming one peptide site per subunit and equal KD of labelled and unlabeled peptide; details: both partners purified
[15] = biological target: the molecule itself; assay: crystal structure; human CaMKII-α hub with uncleaved tag; 35% (v/v) MPD, 0.1 M HEPES pH 7.3

`CC[C@H](C)[C@H](NC(=O)[C@H](C)NC(=O)CNC(=O)[C@H](CCCCN)NC(=O)[C@H](CC(C)C)NC(=O)[C@H](CCCCN)NC(=O)[C@H](CCCNC(=N)N)NC(=O)[C@H](CCCNC(=N)N)NC(=O)[C@H](C)NC(=O)[C@H](CC(N)=O)NC(=O)[C@H](Cc1ccccc1)NC(=O)[C@H](CCCCN)NC(=O)[C@H](CCCCN)NC(=O)[C@@H](N)CC(C)C)C(=O)N[C@@H](CC(C)C)C(=O)N[C@H](C(=O)N[C@H](C(=O)N[C@@H](CCSC)C(=O)N[C@@H](CC(C)C)C(=O)N[C@@H](C)C(=O)N[C@@H](CS)C(=O)O)[C@@H](C)OP(=O)(O)O)[C@@H](C)O` [peptide D] was tested, and the Kd ([1]; 2 nM labeled peptide bound to 30 μM hub, competed with unlabeled peptide 0-500 μM, 25 mM Tris pH 8.0, non-linear least squares fit, one peptide-binding site per subunit, labeled peptide A used for peptide B, read-out: KD from competition experiments) was 52 µM.

For “LKEFNAERKLEGAILTTMLA [Peptide G, triple mutant of the residues 290-309 peptide, three positively charged residues replaced by Glu]”, the “Ability to compete the binding of the labeled peptide” value ([1]; hub bound to labeled peptide A, competition with unlabeled mutant peptides (Figure 3F)) was “fails to compete”.

For “N. vectensis CaMKII-A hub domain (domain or fragment)”, the stoichiometry N [2] was 14.

“N. vectensis CaMKII-B hub domain (domain or fragment)” showed a stoichiometry N [3] of 14.

Molecule RRKLKGAILTTMLATRC [peptide A] has a Kd [4] of ~100 µM.

For “S. rosetta CaMKII holoenzyme, full length, wild type”, the stoichiometry N [5] was 2 and 4, the stoichiometry N [6] was 4 and 6 and the stoichiometry N [7] was 4 and 6 and 8. For the same molecule, the stoichiometry N [8] was 2.

Work on “S. rosetta CaMKII hub domain (domain or fragment)” yielded a stoichiometry N [9] of 4.

With “hub-△kinase (hub, linker and autoinhibitory segment of human CaMKII-α, without the kinase domain) (domain or fragment)” the percent of the sample in the dimer peak [10] was 35%, the percent of the sample in the dodecamer/tetradecamer peak [10] was 65% and the stoichiometry N [10] was 2.

In the case of B1, the “stoichiometry N” value [11] is reported as 12 and 14.

B2: human CaMKII-α hub domain F397A (domain or fragment, UniProt Q9UQM7 345-475, looked up)
chain: VRKQEIIKVTEQLIEAISNGDFESYTKMCDPGMTAFEPEALGNLVEGLDFHRAYFENLWSRNSKPVHTTILNPHIHLMGDESACIAYIRITQYLDAGGIPRTAQSEETRVWHRRDGKWQIVHFHRSGAPSV
notes: Ca2+/calmodulin-dependent protein kinase II alpha, human, hub domain; residues 345-475 are stated for the crystallization construct of the wild type; residue number according to PDB 1HKX; also called F397A mutant hub; mutant hub; source: E. coli BL21, purified; not shown: His6, N-terminal, cleaved
In the case of B2, the “stoichiometry N” value [12] is reported as 14 and the “stoichiometry N” value [13] is reported as 2.

B3: Peptide C, unlabeled (human CaMKII-α 290-309 plus C-terminal cysteine, phosphorylated on Thr 305) (peptide)
peptide: LKKFNARRKLKGAIL[pT]TMLAC
notes: human CaMKII-α, residues 290-309; added C-terminal cysteine; also called peptide phosphorylated on Thr 305; source: synthetic peptide, bought: Elim Biopharm, HPLC purified
B3 showed an IC50 [14] of ~100 µM and a Kd [14] of ~60 µM.

B4: human CaMKII-α hub, crystallization construct with uncleaved expression tag (domain or fragment)
chain: GSSHHHHHHSSGLEVLFQGPHMVRKQEIIKVTEQLIEAISNGDFESYTKMCDPGMTAFEPEALGNLVEGLDFHRFYFENLWSRNSKPVHTTILNPHIHLMGDESACIAYIRITQYLDAGGIPRTAQSEETRVWHRRDGKWQIVHFHRSGAPSV
notes: uncleaved N-terminal expression tag: hexahistidine followed by a PreScission protease cleavage site; written as a part because it docks on the hub; Ca2+/calmodulin-dependent protein kinase II alpha, human, hub domain, residues 345-475; The 22-residue tag was left uncleaved for crystallization; also called dodecameric human CaMKII-α hub; source: E. coli BL21, purified (Ni-NTA, Q-FF, Superose 6, …)
For B4, the “stoichiometry N” value [15] was 12.

B5: Peptide D, unlabeled (human CaMKII-α 290-309 plus C-terminal cysteine, phosphorylated on Thr 306) (peptide)
peptide: LKKFNARRKLKGAILT[pT]MLAC
notes: human CaMKII-α, residues 290-309; added C-terminal cysteine; also called peptide phosphorylated on Thr 306; source: synthetic peptide, bought: Elim Biopharm, HPLC purified
B5 gave an IC50 [14] of ~100 µM and a Kd [14] of ~50 µM.

B6: Peptide B (human CaMKII-α 290-309, unphosphorylated, unlabeled) (peptide)
peptide: LKKFNARRKLKGAILTTMLA
notes: also called the unphosphorylated peptide; wild type peptide; source: synthetic peptide, gift of Leta Nutt (St. Jude Children's Research Hospital), HPLC purified
In the case of B6, the IC50 [14] is reported as ~100 µM and the Kd [14] is reported as ~90 µM.
